The Immune Epitope Database (IEDB)

Tests used:
HLA-A*02:02 = test: IEDB peptide-MHC binding, purified MHC/competitive/radioactivity; filed as Kd, often an IC50 or EC50 that approximates it; ≥ and ≤ were set here for values at or beyond the usual limits of such assays; settings: source organism: Vaccinia virus Copenhagen
HLA-A*02:03 [1] = test: as above; settings: source organism: Vaccinia virus Copenhagen
HLA-A*02:06 = test: as above; settings: source organism: Vaccinia virus Copenhagen
HLA-A*02:01 [2] = test: IEDB peptide-MHC binding, purified MHC/competitive/fluorescence; filed as Kd, often an IC50 or EC50 that approximates it; ≥ and ≤ were set here for values at or beyond the usual limits of such assays
HLA-C*05:01 = test: IEDB peptide-MHC binding, purified MHC/direct/fluorescence; filed as Kd, often an IC50 or EC50 that approximates it; ≥ and ≤ were set here for values at or beyond the usual limits of such assays
HLA-A*02:12 = test: IEDB peptide-MHC binding, purified MHC/competitive/fluorescence; filed as Kd, often an IC50 or EC50 that approximates it; ≥ and ≤ were set here for values at or beyond the usual limits of such assays
HLA-B*27:03 = test: as above
HLA-A*02:19 = test: as above
HLA-A*24:03 = test: as above
HLA-A*02:11 = test: as above; settings: source organism: Vibrio parahaemolyticus K5030
HLA-B*39:01 = test: as above
HLA-B*18:01 [3] = test: as above
HLA-A*26:01 [4] = test: as above
HLA-B*57:01 [5] = test: as above
HLA-B*51:01 = test: as above
HLA-B*46:01 [6] = test: as above
HLA-A*03:01 [7] = test: as above; settings: source organism: Vibrio parahaemolyticus K5030
HLA-B*15:01 [8] = test: as above
HLA-A*29:02 = test: as above; settings: source organism: Vibrio parahaemolyticus K5030
HLA-A*01:01 = test: IEDB peptide-MHC binding, purified MHC/direct/fluorescence; filed as Kd, often an IC50 or EC50 that approximates it; ≥ and ≤ were set here for values at or beyond the usual limits of such assays; settings: source organism: Marburg virus - Musoke, Kenya, 1980
HLA-A*31:01 [9] = test: as above; settings: source organism: Marburg virus - Musoke, Kenya, 1980
HLA-B*07:02 = test: as above; settings: source organism: Marburg virus - Musoke, Kenya, 1980
HLA-B*08:01 = test: as above; settings: source organism: Ravn virus - Ravn, Kenya, 1987
HLA-B*27:05 = test: as above; settings: source organism: Marburg virus - Musoke, Kenya, 1980
HLA-A*26:02 = test: as above; settings: source organism: Ravn virus - Ravn, Kenya, 1987
HLA-B*15:17 [10] = test: as above; settings: source organism: Marburg virus - Musoke, Kenya, 1980
HLA-A*69:01 [11] = test: as above; settings: source organism: Marburg virus - Musoke, Kenya, 1980
HLA-B*18:01 [12] = test: as above; settings: source organism: Marburg virus - Musoke, Kenya, 1980
HLA-A*26:01 [13] = test: as above; settings: source organism: Ravn virus - Ravn, Kenya, 1987
HLA-B*57:01 [14] = test: as above; settings: source organism: Marburg virus - Musoke, Kenya, 1980
HLA-B*40:01 = test: as above; settings: source organism: Marburg virus - Musoke, Kenya, 1980
HLA-A*68:02 [15] = test: as above; settings: source organism: Marburg virus - Musoke, Kenya, 1980
HLA-A*02:01 [16] = test: as above; settings: source organism: Marburg virus - Musoke, Kenya, 1980
HLA-B*48:01 = test: as above; settings: source organism: Marburg virus - Musoke, Kenya, 1980
HLA-B*46:01 [17] = test: as above; settings: source organism: Marburg virus - Musoke, Kenya, 1980
HLA-A*03:01 [18] = test: as above; settings: source organism: Marburg virus - Musoke, Kenya, 1980
HLA-B*15:01 [19] = test: as above; settings: source organism: Marburg virus - Musoke, Kenya, 1980
HLA-A*11:01 = test: as above; settings: source organism: Marburg virus - Musoke, Kenya, 1980
HLA-B*58:01 = test: as above; settings: source organism: Marburg virus - Musoke, Kenya, 1980
HLA-B*08:03 = test: as above; settings: source organism: Ravn virus - Ravn, Kenya, 1987
HLA-A*31:01 [20] = test: IEDB peptide-MHC binding, purified MHC/competitive/fluorescence; filed as Kd, often an IC50 or EC50 that approximates it; ≥ and ≤ were set here for values at or beyond the usual limits of such assays; settings: source organism: Influenza A virus (A/swine/Italy/1513-1/1998(H1N1))
HLA-B*15:17 [21] = test: as above; settings: source organism: Influenza A virus (A/swine/Italy/1513-1/1998(H1N1))
HLA-A*69:01 [22] = test: as above; settings: source organism: Influenza A virus (A/swine/Italy/1513-1/1998(H1N1))
HLA-A*68:02 [23] = test: as above; settings: source organism: Influenza A virus (A/swine/Italy/1513-1/1998(H1N1))
HLA-A*02:03 [24] = test: as above; settings: source organism: Influenza A virus (A/swine/Italy/1513-1/1998(H1N1))
[25] = source organism: Vibrio parahaemolyticus K5030
[26] = source organism: Influenza A virus (A/swine/Italy/1513-1/1998(H1N1))

Question: FVDTMSIYI was tested. Which Kd (HLA-A*02:02) did it give?
Answer: 0.0207 µM

Question: And the Kd (HLA-A*02:03 [1])?
Answer: 0.37 µM

Question: And the Kd (HLA-A*02:06)?
Answer: 0.0161 µM

Question: And the Kd (HLA-A*02:01 [2]; source organism: Variola virus)?
Answer: 0.0004 µM

Question: What about the Kd (HLA-C*05:01; source organism: Variola virus) of the same sequence?
Answer: 0.002 µM

Question: Which Kd (HLA-C*05:01; source organism: Vaccinia virus Copenhagen) does the source give for FPSVFINPI here?
Answer: ≥ 20 µM

Question: Which results are given for WLGDVWQEK?
Answer: Kd (HLA-A*02:12; [25]): ≥ 20 µM; Kd (HLA-B*27:03; [25]): ≥ 20 µM; Kd (HLA-A*02:19; [25]): ≥ 20 µM; Kd (HLA-A*24:03; [25]): ≥ 20 µM; Kd (HLA-A*02:11): 0.0251 µM; Kd (HLA-B*39:01; [25]): ≥ 20 µM; Kd (HLA-B*18:01 [3]; [25]): ≥ 20 µM; Kd (HLA-A*26:01 [4]; [25]): ≥ 20 µM; Kd (HLA-B*57:01 [5]; [25]): ≥ 20 µM; Kd (HLA-A*02:01 [2]; [25]): ≥ 20 µM; Kd (HLA-B*51:01; [25]): ≥ 20 µM; Kd (HLA-B*46:01 [6]; [25]): ≥ 20 µM; Kd (HLA-A*03:01 [7]): ≥ 20 µM; Kd (HLA-B*15:01 [8]; [25]): ≥ 20 µM; Kd (HLA-A*29:02): ≥ 20 µM

Question: QVGIFLICK was tested. Which Kd (HLA-A*01:01) did it give?
Answer: ≥ 20 µM

Question: And the Kd (HLA-A*31:01 [9])?
Answer: ≥ 20 µM

Question: And the Kd (HLA-B*07:02)?
Answer: ≥ 20 µM

Question: And the Kd (HLA-B*08:01)?
Answer: ≥ 20 µM

Question: And the Kd (HLA-B*27:05)?
Answer: ≥ 20 µM

Question: What about the Kd (HLA-A*26:02) of the same sequence?
Answer: ≥ 20 µM

Question: What about the Kd (HLA-B*15:17 [10]) of the same sequence?
Answer: ≥ 20 µM

Question: And the Kd (HLA-A*69:01 [11])?
Answer: ≥ 20 µM

Question: What about the Kd (HLA-B*18:01 [12]) of the same sequence?
Answer: ≥ 20 µM

Question: And the Kd (HLA-A*26:01 [13])?
Answer: ≥ 20 µM

Question: What about the Kd (HLA-B*57:01 [14]) of the same sequence?
Answer: ≥ 20 µM

Question: What about the Kd (HLA-B*40:01) of the same sequence?
Answer: ≥ 20 µM

Question: What about the Kd (HLA-A*68:02 [15]) of the same sequence?
Answer: ≥ 20 µM

Question: What about the Kd (HLA-A*02:01 [16]) of the same sequence?
Answer: ≥ 20 µM

Question: And the Kd (HLA-B*48:01)?
Answer: ≥ 20 µM

Question: What about the Kd (HLA-B*46:01 [17]) of the same sequence?
Answer: ≥ 20 µM

Question: And the Kd (HLA-A*03:01 [18])?
Answer: ≥ 20 µM

Question: What about the Kd (HLA-B*15:01 [19]) of the same sequence?
Answer: ≥ 20 µM

Question: And the Kd (HLA-A*11:01)?
Answer: 2.8 µM

Question: And the Kd (HLA-B*58:01)?
Answer: ≥ 20 µM

Question: And the Kd (HLA-B*08:03)?
Answer: ≥ 20 µM

Question: Which results are given for MMWEINGPK?
Answer: Kd (HLA-A*02:12; [26]): ≥ 20 µM; Kd (HLA-A*31:01 [20]): 0.0751 µM; Kd (HLA-B*27:03; [26]): ≥ 20 µM; Kd (HLA-A*02:19; [26]): ≥ 20 µM; Kd (HLA-A*24:03; [26]): ≥ 20 µM; Kd (HLA-B*39:01; [26]): ≥ 20 µM; Kd (HLA-B*15:17 [21]): ≥ 20 µM; Kd (HLA-A*69:01 [22]): ≥ 20 µM; Kd (HLA-B*18:01 [3]; [26]): ≥ 20 µM; Kd (HLA-A*26:01 [4]; [26]): ≥ 20 µM; Kd (HLA-B*57:01 [5]; [26]): ≥ 20 µM; Kd (HLA-A*68:02 [23]): ≥ 20 µM; Kd (HLA-B*51:01; [26]): ≥ 20 µM; Kd (HLA-B*46:01 [6]; [26]): ≥ 20 µM; Kd (HLA-B*15:01 [8]; [26]): ≥ 20 µM; Kd (HLA-A*02:03 [24]): ≥ 20 µM
